Assay results taken from US20150017665A1, “Peptides and Methods for Detecting MPO-ANCA” (The University of North Carolina at Chapel Hill, priority 2012, published 2015).

How the values were obtained:
mice = conditions: Ooi et al. 2012; cited from earlier work
[1] = test system: anti-MPO^447-459 autoantibody; assay: Epitope masking ELISA with ceruloplasmin and its fragments; format: binding, human; conditions: ELISA
Excerpt: (§1) Serum proteins that bound immobilized MPO peptide aa447-459 were eluted and sequenced for identification. […] Sequenced on a 4800 MALDI TOF-TOF, the protein was identified as ceruloplasmin (CP), and confirmed by western blot analysis probed with a rabbit anti-human anti-CP polyclonal antibody (Abeam). Native CP was purchased (Enzo Life Science) and proteolytically digested in vitro by plasmin (Haemtech).
(§2) To isolate the putative serum factor, immobilized MPO aa447-459 peptide was used as bait to fish-out host proteins with binding capacity. […] However, the CP bound to aa447-459 was primarily a 50 kD protein on sodium dodecyl sulfate polyacrylamide gel electrophoresis (SDS-PAGE), while full length CP is 151 kD (FIG. 6D). An anti-ceruloplasmin western blot confirmed the fragment to be a portion of CP (FIG. 6E). To test the role of proteolytic cleavage in generating the blocking factor, a plasmin-generated fragment of CP (Kingston et al., Proc. Natl. Acad. Sci. USA 74:5377 (1977)) was tested for epitope masking capability (FIG. 6F).

[2] = test system: MPO-ANCA IgG (polyclonal); assay: Effect of CP on binding of polyclonal MPO-ANCA Ig to native MPO (ELISA); design: species or system human; conditions: MPO-ANCA IgG from four patients
Excerpt: as §2

MPO peptide aa447-459 = target: T1, MPO peptide aa447-459 (Homo sapiens, UniProt P05164); assay: Serum proteins binding to immobilized MPO peptide aa447-459; conditions: identified by mass spectrometry
T1 construct: made in house; host or cells: chemical synthesis (a peptide core is named only for the ELISA peptides)
Excerpt: as §1, §2

## PRWNGEKLYQEARKIVGAMV (listed as Homo sapiens) [murine MPO peptide aa409-428]
mice
  induction of glomerulonephritis: induces glomerulonephritis in mice

B1: full length CP: full length ceruloplasmin, 151 kD, purchased (Enzo Life Science) (protein)
chain: KEKHYYIGIIETTWDYASDHGEKKLISVDTEHSNIYLQNGPDRIGRLYKKALYLQYTDETFRTTIEKPVWLGFLGPIIKAETGDKVYVHLKNLASRPYTFHSHGITYYKEHEGAIYPDNTTDFQRADDKVYPGEQYTYMLLATEEQSPGEGDGNCVTRIYHSHIDAPKDIASGLIGPLIICKKDSLDKEKEKHIDREFVVMFSVVDENFSWYLEDNIKTYCSEPEKVDKDNEDFQESNRMYSVNGYTFGSLPGLSMCAEDRVKWYLFGMGNEVDVHAAFFHGQALTNKNYRIDTINLFPATLFDAYMVAQNPGEWMLSCQNLNHLKAGLQAFFQVQECNKSSSKDNIRGKHVRHYYIAAEEIIWNYAPSGIDIFTKENLTAPGSDSAVFFEQGTTRIGGSYKKLVYREYTDASFTNRKERGPEEEHLGILGPVIWAEVGDTIRVTFHNKGAYPLSIEPIGVRFNKNNEGTYYSPNYNPQSRSVPPSASHVAPTETFTYEWTVPKEVGPTNADPVCLAKMYYSAVEPTKDIFTGLIGPMKICKKGSLHANGRQKDVDKEFYLFPTVFDENESLLLEDNIRMFTTAPDQVDKEDEDFQESNKMHSMNGFMYGNQPGLTMCKGDSVVWYLFSAGNEADVHGIYFSGNTYLWRGERRDTANLFPQTSLTLHMWPDTEGTFNVECLTTDHYTGGMKQKYTVNQCRRQSEDSTFYLGERTYYIAAVEVEWDYSPQREWEKELHHLQEQNVSNAFLDKGEFYIGSKYKKVVYRQYTDSTFRVPVERKAEEEHLGILGPQLHADVGDKVKIIFKNMATRPYSIHAHGVQTESSTVTPTLPGETLTYVWKIPERSGAGTEDSACIPWAYYSTVDQVKDLYSGLIGPLIVCRRPYLKVFNPRRKLEFALLFLVFDENESWYLDDNIKTYSDHPEKVNKDDEEFIESNKMHAINGRMFGNLQGLTMHVGDEVNWYLMGMGNEIDLHTVHFHGHSFQYKHRGVYSSDVFDIFPGTYQTLEMFPRTPGIWLLHCHVTDHIHAGMETTYTVLQNEDTKSG
[1]
  epitope masking capability: did not
[1]; listed as full-length CP
  epitope masking capability: did not mask the epitope
[2]
  effect on binding of polyclonal MPO-ANCA Ig to native MPO: unaffected
MPO peptide aa447-459
  binding to immobilized MPO aa447-459 peptide: identified by mass spectrometry as a binding partner
